Measured values from patent US20150232852.

Experiments:
[1] = biological target: D-glucagon (all D-amino acids), biotinylated (Homo sapiens) (UniProt P01275); assay: pulldown; conditions: D-DNA; 37 C, 1 mM Mg, 1 mM Ca, pH 7.4; direct pull-down
[2] = biological target: glucagon, L-form, biotinylated (glucagon1-29-AEEAc-AEEAc-biotin) (Homo sapiens) (UniProt P01275); assay: pulldown; conditions: L-DNA; 37 C, 1 mM Mg, 1 mM Ca, pH 7.4; direct pull-down, spiegelmer
Chain of glucagon, L-form, biotinylated (glucagon1-29-AEEAc-AEEAc-biotin) (Homo sapiens) (P01275 53-81): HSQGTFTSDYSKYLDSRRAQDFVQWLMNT

CGACTCGAGAGGAAAGGTTGGTAAAGGTTCGGTTGGATTCACTCGAGTCG [259-H6-001 (aptamer)]
Kd [1]: 33 nM

GCAGTGGGGAAATGGGAGGGCTAGGTGGAAGGAATCTGAGCTACTGC [257-E1-001 (aptamer)]
Kd [1]: 137 nM

GCAGTGGGGAAATGGGAGGGCTAGGTGGAAGGAATCTGAGCTACTGC [257-E1-001 (spiegelmer)]
Kd [2]: 179 nM
